This passage reports amount needed for the same inhibition of TNFβ cytotoxicity, against p75P-sf2 (fold (against p75P-sf2)) results from patent US20030204066A1.

The assay has as its target human lymphotoxin (TNFβ) (human) (UniProt P01374). The assay can be described thus: cell-based or functional assay.

human lymphotoxin (TNFβ) (human), sequence (P01374 35-205 limits assumed): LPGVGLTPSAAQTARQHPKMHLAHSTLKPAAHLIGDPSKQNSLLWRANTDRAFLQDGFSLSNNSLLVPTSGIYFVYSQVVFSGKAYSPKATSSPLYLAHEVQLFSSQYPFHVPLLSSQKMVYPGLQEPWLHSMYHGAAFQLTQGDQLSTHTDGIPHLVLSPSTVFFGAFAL

“p55-sf2 (p55 TNF receptor / IgG1 heavy chain single fusion with truncated light chain JCK) (from UniProt P19438) (Fc fusion)” displayed an amount needed for the same inhibition of TNFβ cytotoxicity, against p75P-sf2 (fold (against p75P-sf2)) of 3.
